# From paper PMC7284770, “Cloning and Expression of a Perilla frutescens Cytochrome P450 Enzyme Catalyzing the Hydroxylation of Phenylpropenes” (Plants, 2020)
# System: T1, C=CCc1cc(OC)c2c(c1)OCO2
# T1 construct: full-length, 505 residues, 57 kD, untagged; microsomal fraction of Saccharomyces cerevisiae AH22, vector pGYR-SpeI co-expressing yeast NADPH-P450 reductase
# Assay: GC-FID product assay, yeast microsomal fraction
# Assay type: biochemical, Perilla frutescens
# Details: 0.5 mM NADPH, 50 mM HEPES/NaOH pH 7.5, 30 °C, 15 min, myristicin 0.2 to 10 µM, co-expressed yeast NADPH-P450 reductase, product 6-allyl-4-methoxy-1,3-benzodioxol-5-ol
# Excerpt: GC-FID product assay, yeast microsomal fraction on Pf-49487 (CYP71D558) | We performed kinetic analyses of the Pf-49487 reaction using myristicin as substrate.
substance,measurement,value
Pf-49487 (CYP71D558) (Perilla frutescens),Km,9.1 µM
same,kcat,0.25 s⁻¹
